From article PMC4347018

Experiments:
[1] = biological target: Cytolysin A (ClyA) wild type, N-terminally His6-tagged (E. coli) (UniProt P77335); experiment: FRET or BRET; single-molecule intramolecular FRET of ~100 pM labelled ClyA freely diffusing, with 5 nM to 5 uM unlabelled ClyAwt; assembly triggered with 0.1% (w/v) DDM by manual mixing; 22 °C; 20 mM potassium phosphate pH 7.3, 150 mM NaCl, 0.001% Tween-20, 10 mM DTT; global fit of the histogram time series with the non-sequential assembly model (irreversible steps)
[2] = biological target: Cytolysin A (ClyA) wild type, N-terminally His6-tagged (E. coli) (UniProt P77335); experiment: FRET or BRET + cross-linking; rate coefficient of pore closure in the non-sequential assembly model fitted to the single-molecule FRET data, set so that the predicted formation of complete pores matches the cross-linking data (500 nM ClyAwt, 0.1% DDM, 22 °C)

Substance | k5 (association rate coefficient of all oligomerization steps that lead to incomplete pores) [1] [M⁻¹ s⁻¹] | k6 (association rate coefficient of pore closure, two oligomers to the complete pore) [2] [M⁻¹ s⁻¹]
ClyA Q56C/E252C labelled with Alexa Fluor 488 at Cys56 and Alexa Fluor 594 at Cys252 (from UniProt P77335 2-303) (natural protein) | 102000 | 
Cytolysin A (ClyA) wild type, N-terminally His6-tagged (from UniProt P77335 2-303) (natural protein) |  | > 1e+07
